Experiments:
[1] = test system: alcohol dehydrogenase from R. erythropolis (RE-ADH, new ADH expr. in E. coli); experiment: Relative/specific activity of substrates with the new ADH from R. erythropolis (photometric NADH test); format: biochemical, Rhodococcus erythropolis
Description: In this case, as is normal, the measured activity for one compound is set at 100% and the activity/activities of the other compound(s) is determined in relation thereto. From the relative activities when compared with other substrates, it can then be recognised whether such another substrate is accepted to a greater or lesser extent.
A first purification can be achieved by anion exchange chromatography (MonoQ-Material, Pharmacia) (mobile buffer: 50 mM TEA buffer, pH 7.0; elution with a NaCl gradient of 0-1 M).
For the activity test, the cells were harvested (15 min centrifuging at 14000 rpm, 4° C.) and degraded after resuspension with 100 mM KPi buffer, pH 6.0 (1.5 ml of buffer per 1 g of cells). For the purposes of degradation, the suspension was treated with ultrasound (2×30 sec. power 100%, pulse 50), then the cell broth was centrifuged. The supernatant liquid is the soluble crude extract, the sediment is the insoluble fraction.
For a comparison using relative activities, the activity of the two enzymes was given with respect to phenylacetaldehyde=100%.
In this case, the relative activity is given with respect to the activity measured for acetophenone.

[2] = test system: aldehyde reductase from Corynebacterium sp.; experiment: Activity of substrates with aldehyde reductase from Corynebacterium sp. (Itoh et al.); format: biochemical, Corynebacterium sp. ST-10; conditions: Corynebacterium enzyme
Text: When comparing the gene sequence for ADH from R. erythropolis with sequences in the databases, it was shown that RE-ADH has a high degree of homology with an aldehyde reductase from Coyrnebacterium sp. In the publication on aldehyde reductase, a number of biochemical properties of this enzyme are described (Itoh, N., R. Morihama, J. Wang, K. Okada and N. Mizuguchi (1997), Purification and characterisation of phenylacetaldehyde reductase from a styrene-assimilating Corynebacterium strain, ST-10, Appl. Environ. Microbiol. 63: 3783-378). Some of the (aldehyde) substrates described in that publication were therefore also converted using RE-ADH and compared using the relative activities of the reductase. […] Further comparisons of the two enzymes using the published data material are not meaningful because the enzyme from Corynebacterium was tested exclusively with phenylacetaldehyde as substrate, but RE-ADH has hitherto been characterised using p-Cl-acetophenone.
A comparison of RE-ADH with the aldehyde reductase from Corynebacterium sp. with regard to the activity for acetophenone reduction and a few aldehydes. Data on the enzyme from Corynebacterium were taken from the publication by Itoh et al. (see above), data on RE-ADH are our own measurements (homogeneous=very pure homogeneous enzyme). […]

[3] = test system: aldehyde reductase from Corynebacterium sp.; conditions: phenylacetaldehyde = 100%; cited from earlier work
[4] = Activity of immobilised RE-ADH (Eupergit, Ni-NTA) with p-Cl-acetophenone, GC; format: biochemical; conditions: for activity of the immobilised enzyme: 30° C.
Description: Eupergit C® and Eupergit C 250L® were used in parallel batches, each being loaded with partially purified RE-ADH (literature reference relating to Eupergit immobilisation: E. Katchalski-Katzir, D. M. Kraemer, J. Mol. Catal. B: Enzym. 2000, 10, 157). The following was used for the test: • 1.5 mM p-Cl-acetophenone (dissolved in 0.1 M Na formate buffer, 0.05 M KPi buffer, pH 6.0) • 0.5 mM NAD • 30 mg immobilisate • 1 U/ml formate dehydrogenase (FDH)
These test materials were incubated at 30° C., a sample (100 μl) was taken from each mix after 0, 5, 10 and 15 min, this was extracted with 100 μl of chloroform and the chloroform phase was analysed for any phenylethanol formed using gas chromatography. The activity of the immobilised enzyme can be calculated from the kinetics of phenylethanol formation and values of 11.8 U/g support for Eupergit C® and 8 U/g of support for Eupergit C 250L® were obtained. With respect to the amount of enzyme used, this corresponded to coupling yields of 1% (Eupergit ®) and 0.8% (Eupergit C 250L®). • b) Immobilising on Ni-NTA
Recombinant E. coli JM105/pRE-ADH5 cells were broken down in an imidazole-containing buffer (50 mM NaH2PO4; 300 mM NaCl; 10 mM imidazole, pH 8.0) and a crude extract was prepared in the way described previously. For immobilisation, 1 ml of enzyme solution (13 U/ml RE-ADH, crude extract from the culture E. coli JM105pRE-ADH5; 8 mg/ml of protein) was added to 300 mg of Ni-NTA support material (Quiagen) and incubated for 10 min at 0° C. (ice bath). After centrifuging the suspension, 3 U/ml could still be detected as residual activity in the supernatant liquid as non-bonded enzyme. The immobilisate was reacted with p-Cl-acetophenone to detect the bonded activity.
For this purpose, the following were used per 1 ml of total volume:
3 mM p-Cl-acetophenone (substrate; dissolved in 100 mM Na formate, 50 mM Kpi buffer pH 6.0)
1 U formate dehydrogenase
The test batch was incubated in the same way as described above (immobilisation on Eupergit®), samples were taken and these were analysed using gas chromatography. […] Taking into account the fact that this test was performed with 30 mg of immobilisate and that 10 U RE-ADH had bonded to 300 mg of support material, 1 U was thus introduced in the test batch with the 30 mg. Since an activity of 0.21 U was reported, an immobilisation yield of 21% was obtained. The enantiomer purity (ee value) of the alcohol formed with the immobilisate was >99%.

[5] = Specific enzyme activity, standard test with p-Cl-acetophenone and NADH; format: biochemical
Description: For elution, a falling ammonium sulfate gradient (1-0 M) was used; the desired enzyme then eluted at almost 0 M ammonium sulfate. […] The desired protein eluted on application of a falling ammonium sulfate gradient (1-0 M) at about 0.1 M ammonium sulfate. […] The supernatant liquid is the soluble crude extract, the sediment is the insoluble fraction. […] For expression, E. coli BL21 (DE3) was used as host. Recombinant cells were multiplied in the medium LBcam at 37° C. At an OD600 of 0.5, expression was induced with 25 μM IPTG, then the cells were multiplied for 12 h at 30° C. The cells were harvested after centrifuging for 15 min at 5000 rpm, the sediment was resuspended in 100 mM Kpi buffer (1.5 ml per 1 g of cells) and broken down using ultrasound.

[6] = Thermal stability of the ADH (activity after incubation); format: physicochemical
Description: The advantageous aspects and differences mentioned above with regard to improvement in the stability, as compared with previously known alcohol dehydrogenases from R. erythropolis are summarised in Table 5 and in FIG. 4. For better comparison, the relevant enzyme activity measured at 45° C. was set at 100%.
Here, for the very pure new alcohol hydrogenase, high thermal stabilities were produced over a wide temperature range extending up to 65° C. The stability values in this case are […]

[7] = pH optimum for the activity and stability of RE-ADH; format: biochemical; conditions: 4° C. and room temperature, 1 and 2 days, pH range 7.5-8.5, tris-HCl buffer 0.1 M
Text: The pH optimum for RE-ADH is at pH 6.0 for the reduction reaction (measured using p-Cl-acetophenone).

**Q.** What does the source list for CCCCCCCC=O [Caprylic aldehyde]?
**A.** activity towards caprylic aldehyde as multiple of that towards acetophenone (so in the source) ([1]; RE-ADH): about 5 times; relative activity ([1]; phenylacetaldehyde = 100%): 522%; activity towards caprylic aldehyde as multiple of that with respect to acetophenone (so in the source) [2]: 12 times; relative activity [3]: 1220%

B1: RE-ADH: alcohol dehydrogenase (ADH, RE-ADH) from Rhodococcus erythropolis, Seq. ID NO: 2, tetrameric; also with C-terminal His-Tag or immobilised (protein, listed as Rhodococcus erythropolis)
chain: MKAIQYTRIGAEPELTEIPKPEPGPGEVLLEVTAAGVCHSDDFIMSLPEEQYTYGLPLTLGHEGAGKVAAVGEGVEGLDIGTNVVVYGPWGCGNCWHCSQGLENYCSRAQELGINPPGLGAPGALAEFMIVDSPRHLVPIGDLDPVKTVPLTDAGLTPYHAIKRSLPKLRGGSYAVVIGTGGLGHVAIQLLRHLSAATVIALDVSADKLELATKVGAHEVVLSDKDAAENVRKITGSQGAALVLDFVGYQPTIDTAMAVAGVGSDVTIVGIGDGQAHAKVGFFQSPYEASVTVPYWGARNELIELIDLAHAGIFDIAVETFSLDNGAEAYRRLAAGTLSGRAVVVPGL
modifications: optional C-terminal His-tag or immobilisation
notes: ID NO: 2, tetrameric; also with C-terminal His-Tag or immobilised
**Q.** With B1 as the molecule, how does the “enantiomer purity (ee value) of the alcohol formed with the immobilisate” value ([4]; His-Tag enzyme on Ni-NTA) read?
**A.** > 99%

**Q.** And the “activity of the immobilisate” value ([4]; His-Tag enzyme on Ni-NTA, 30 mg immobilisate, 3 mM p-Cl-acetophenone)?
**A.** 0.21 U

**Q.** What about the “activity of the immobilised enzyme” value ([4]; immobilised on Eupergit C 250L) of the same molecule?
**A.** 8 U/g of support

**Q.** What about the “activity of the immobilised enzyme” value ([4]; immobilised on Eupergit C) of the same molecule?
**A.** 11.8 U/g support

**Q.** And the “activity in the crude extract” value ([5]; crude extract from R. erythropolis)?
**A.** about 2.5 U/mg

**Q.** And the enzyme activity ([5]; hexa-histidine group at the C-terminus, pRE-ADH5 in E. coli JM105)?
**A.** 7 U/mg

**Q.** What about the “ADH activity in the crude extract” value ([5]; plasmid pKK223-3, E. coli JM 105, soluble fraction) of the same molecule?
**A.** 6 U/mg

**Q.** And the “ADH activity in the crude extract” value ([5]; plasmid pKK223-3, E. coli JM 105, soluble fraction, listed as ADH according to the invention)?
**A.** about 6 U/mg

**Q.** What about the “ADH activity in the crude extract” value ([5]; vector pKA1, E. coli BL21 (DE3), cell-free crude extract) of the same molecule?
**A.** 70 U/mg

**Q.** And the “ADH activity in the crude extract” value ([5]; vector pKA1, E. coli BL21 (DE3), cell-free crude extract, listed as ADH)?
**A.** 70 U/mg

**Q.** And the “ADH activity in the crude extract” value ([5]; vector pKA1, E. coli BL21 (DE3), cell-free crude extract, listed as ADH according to the invention)?
**A.** about 70 U/mg

**Q.** What about the “enzyme activity after incubation” value ([6]; 10 min at 45° C.) of the same molecule?
**A.** (110 U/ml)

**Q.** And the “relative enzyme activity after incubation” value (shortened to “relative enzyme activity”) ([6]; 10 min at 45° C.)?
**A.** 95%

**Q.** And the “enzyme activity after incubation” value ([6]; 10 min at 50° C.)?
**A.** (110 U/ml)

**Q.** And the “relative enzyme activity” value ([6]; 10 min at 50° C.)?
**A.** 95%

**Q.** And the “enzyme activity after incubation” value ([6]; 10 min at 55° C.)?
**A.** (115 U/ml)

**Q.** And the “relative enzyme activity” value ([6]; 10 min at 55° C.)?
**A.** 99%

**Q.** What about the “enzyme activity after incubation” value ([6]; 10 min at 60° C.) of the same molecule?
**A.** (112 U/ml)

**Q.** What about the “relative enzyme activity” value ([6]; 10 min at 60° C.) of the same molecule?
**A.** 97%

**Q.** And the “enzyme activity after incubation” value ([6]; 10 min at 65° C.)?
**A.** (116 U/ml)

**Q.** And the “relative enzyme activity” value ([6]; 10 min at 65° C.)?
**A.** 100%

**Q.** What about the deactivation on storage [7] of the same molecule?
**A.** no deactivation
